Assay results reported in patent US20130347134A1 (published 2013).
Substitutions are numbered along the chain they refer to. Names and notes keep the numbering of the source.

B1: murine platelet glycoprotein Ib alpha (GPIb α) on mouse platelets (receptor, UniProt O35930 17-734, looked up)
chain: QHTCSISKVTSLLEVNCENKKLTALPADLPADTGILHLGENQLGTFSTASLVHFTHLTYLYLDRCELTSLQTNGKLIKLENLDLSHNNLKSLPSLGWALPALTTLDVSFNKLGSLSPGVLDGLSQLQELYLQNNDLKSLPPGLLLPTTKLKKLNLANNKLRELPSGLLDGLEDLDTLYLQRNWLRTIPKGFFGTLLLPFVFLHANSWYCDCEILYFRHWLQENANNVYLWKQGVDVKDTTPNVASVRCANLDNAPVYSYPGKGCPTSSGDTDYDDYDDIPDVPATRTEVKFSTNTKVHTTHWSLLAAAPSTSQDSQMISLPPTHKPTKKQSTFIHTQSPGFTTLPETMESNPTFYSLKLNTVLIPSPTTLEPTSTQATPEPNIQPMLTTSTLTTPEHSTTPVPTTTILTTPEHSTIPVPTTAILTTPKPSTIPVPTTATLTTLEPSTTPVPTTATLTTPEPSTTLVPTTATLTTPEHSTTPVPTTATLTTPEHSTTPVPTTATLTTPEPSTTLTNLVSTISPVLTTTLTTPESTPIETILEQFFTTELTLLPTLESTTTIIPEQNSFLNLPEVALVSSDTSESSPFLNSDFCCFLPLGFYVLGLLWLLFASVVLILLLTWTWHVTPHSLDMEQSAALATSTHTTSLEVQRARQVTMPRAWLLFLQGSLPTFRSSLFLWVRPNGRVGPLVAGRRPSALSQGRGQDLLGTVGIRYSGHSL
notes: whole, on cells; Native receptor on mouse platelets or whole blood; also called murine GPIb α; mGPIb-α
B2: recombinant human VWF-A1 containing 1309I>V and 1326H>R (ligand)
chain: QEPGGLVVPPTDAPVSPTTLYVEDISEPPLHDFYCSRLLDLVFLLDGSSRLSEAEFEVLKAFVVDMMERLRVSQKWVRVAVVEYHDGSRAYIGLKDRKRPSELRRIASQVKYAGSQVASTSEVLKYTLFQIFSKIDRPEASRIALLLMASQEPQRMSRNFVRYVQGLKKKKVIVIPVGIGPHANLKQIRLIEKQAPENKAFVLSSVDELEQQRDEIVSYLCDLAPEAPPPTLPPH
B3: recombinant human VWF-A1 containing 1309I>V and the type 2M mutation 1324G>S (ligand)
chain: B2 chain with G87S, R89H
B4: recombinant murine rVWF-A1 1326R>H (residues 1238 to 1471), Example 3 (ligand)
chain: QEPGGLVAPPTDAPVSSTTPYVEDTPEPPLHNFYCSKLLDLVFLLDGSSMLSEAEFEVLKAFVVGMMERLHISQKRIRVAVVEYHDGSHAYLELKARKRPSELRRITSQIKYTGSQVASTSEVLKYTLFQIFGKIDRPEASHITLLLTASQEPPRMARNLVRYVQGLKKKKVIVIPVGIGPHASLKQIRLIEKQAPENKAFLLSGVDELEQRRDEIVSYLCDLAPEAPAPTQPP
B5: recombinant wild-type murine VWF-A1 protein, His-tagged (amino acids 1233 to 1471, pQE9), Examples 1-2 (ligand)
chain: TCEACQEPGGLVAPPTDAPVSSTTPYVEDTPEPPLHNFYCSKLLDLVFLLDGSSMLSEAEFEVLKAFVVGMMERLHISQKRIRVAVVEYHDGSRAYLELKARKRPSELRRITSQIKYTGSQVASTSEVLKYTLFQIFGKIDRPEASHITLLLTASQEPPRMARNLVRYVQGLKKKKVIVIPVGIGPHASLKQIRLIEKQAPENKAFLLSGVDELEQRRDEIVSYLCDLAPEAPAPTQPP
notes: Disulfide C1272-C1458; also called mouse VWF-A1; M VWF-A1; not shown: 10 vector-derived N-terminal amino acids including 6xHis (pQE9)
B6: recombinant murine VWF-A1 containing the type 2B mutation I1309V (1309I>V) (ligand)
chain: B5 chain with I77V
notes: not shown: 10 vector-derived N-terminal amino acids including 6xHis (pQE9)
B7: recombinant murine VWF-A1 with histidine for arginine at position 1326 (Example 1) (ligand)
chain: B5 chain with R94H
notes: also called mutated murine protein; not shown: 10 vector-derived N-terminal amino acids including 6xHis (pQE9)

Experiments:
[1] = target: T1, murine plasma VWF containing the 1326R>H mutation (VWF^1326R>H) (mouse, UniProt Q8CIZ8 764-2813); test: statement in Example 1; binding reduced
T1 construct: also called R1326H mutant mouse VWF; mutant murine VWF

[2] = target: T2, mouse plasma VWF containing the majority of the human A1 domain (amino acids 1240P through 1481G of human VWF) (mouse VWF with human A1 domain, UniProt Q8CIZ8 764-2813, limits assumed); test: parallel-plate flow system: WT mouse blood infused over surface-immobilized plasma VWF
T2 construct: Plasma VWF from homozygous VWF-HA1 mice; also called VWF-HA1; VWF HA1

[3] = target: T3, murine plasma von Willebrand factor (VWF), wild type (mouse, UniProt Q8CIZ8 764-2813); test: mouse whole blood perfused 4 min over surface-immobilized plasma VWF, 1600 s-1
T3 construct: Plasma-derived multimeric mouse VWF; also called mouse VWF; murine VWF
Method: Ex vivo platelet adhesion studies. Experiments were performed in a parallel-plate flow chamber as previously described (Offermanns, S., et al., 2006). […] Subsequently, the plate was washed and non-specific interactions blocked by the addition of TBS containing 3% BSA, pH 7.4 (1 hour, 37° C.). Human or murine plasma obtained from heparinized whole blood was added and the plates placed at 37° C. for an additional 2 hours. […] The number of platelets attached per unit area (0.07 mm²) and translocation velocities were determined by off-line analysis (Image-Pro Plus, Media Cybernetics). For GPIb α inhibition studies, the function-blocking mAb 6D1 (20 μg/ml) or mAb SZ2 (20 μg/ml; Beckman Coulter, Brea, Calif.) was added to anticoagulated human blood for 30 minutes prior to use. Experiments were performed in triplicate on two separate days. An ELISA was used to ensure equivalent coating concentration of plasma and recombinant proteins (Denis, C. et al., 1998).

[4] = target: T4, human platelet glycoprotein Ib alpha (GPIb α) on human platelets (human, UniProt P07359 17-652); test: interaction times of VWF-A1-coated beads on surface-immobilized platelets, wall shear stress 1 dyn cm^-2
T4 construct: whole, on cells; Native receptor on washed platelets or whole blood; also called GPIb alpha; hGPIb-α
Method: (§1) The duration of these interactions are measured by recording images from a Nikon X60 DIC objective (oil immersion) viewed at a frame rate of 235 fps (Speed Vision Technologies, San Diego, Calif.) and subjected to wall shear stresses (WSS) ranging from 0.5 to 3.0 dyn cm⁻². […] The force acting on the i tether bond was calculated from force balance equations and koff plotted as a function of these forces. […] Because these platelets cannot activate, the kinetics should be reflective of GPIb α in the resting state.

[5] = target: T4, human platelet glycoprotein Ib alpha …; test: interaction times of VWF-A1-coated beads on surface-immobilized platelets, wall shear stress 1 dyn cm^-2; 1309I>V + 1326H>R double mutant; 1 dyn cm^-2 wall shear stress
Method: as §1

[6] = target: T4, human platelet glycoprotein Ib alpha …; test: human platelet attachment in flow to human VWF-A1 as a function of wall shear rate
[7] = target: T4, human platelet glycoprotein Ib alpha …; test: parallel-plate flow chamber: human whole blood perfused over the surface-immobilized recombinant A1 protein, shear rate 1600 s^-1, accumulated platelets counted
[8] = target: B1; test: transient tethers of VWF-A1-coated beads on surface-immobilized murine platelets; shear stress 0.5 dyn cm-2; R2 0.96
Method: (§2) The force acting on the i tether bond was calculated from force balance equations and koff plotted as a function of these forces. […] Because these platelets cannot activate, the kinetics should be reflective of GPIb α in the resting state.
(§3) This antibody was made by immunizing Fischer 344 rats (3-4 months old) with recombinant WT protein. […] Spleens from animals with the highest antibody titers were harvested and splenocytes fused with Sp2/0 mouse myeloma cells (Kohler, et al., 1975).

[9] = target: B1; test: transient tethers of VWF-A1-coated beads on surface-immobilized murine platelets; shear stress 2.0 dyn cm-2; R2 0.95
Method: as §2, §3

[10] = target: B1; test: transient tethers of VWF-A1-coated beads on surface-immobilized murine platelets; shear stress 3.0 dyn cm-2; R2 0.98
Method: as §2, §3

[11] = target: T4, human platelet glycoprotein Ib alpha …; test: human platelets (5x10^7/ml) perfused over coverslips coated with VWF-A1 (100 µg/ml), parallel plate flow chamber, 800 s-1
Method: (§4) The protein was subsequently used in a series of in vitro flow chamber assays to assess function. […] After 5 minutes of continuous flow, adherent platelets were quantified.

[12] = target: B1; test: transient tethers of VWF-A1-coated beads on surface-immobilized murine platelets; shear stress 1.0 dyn cm-2; R2 0.95
Method: as §2, §3

[13] = target: B1; test: transient tethers of VWF-A1-coated beads on surface-immobilized murine platelets; shear stress 2.0 dyn cm-2; R2 0.98
Method: as §2, §3

[14] = target: B1; test: platelet adhesion to coated protein, wall shear rate 800 s^-1
Method: as §4
(§5) Subsequently, the ability of murine and human platelets to interact with this mutant protein substrate was evaluated at a wall shear rate of 800 s⁻¹.

[15] = target: B1; test: platelet translocation on coated protein, wall shear rate 800 s^-1
Method: as §4, §5

[16] = target: T4, human platelet glycoprotein Ib alpha …; test: human platelets perfused over immobilized mutant VWF-A1, wall shear rate 800 s-1

T2 sequence (Q8CIZ8 other isoform, or with tags, fused parts or gaps limits assumed): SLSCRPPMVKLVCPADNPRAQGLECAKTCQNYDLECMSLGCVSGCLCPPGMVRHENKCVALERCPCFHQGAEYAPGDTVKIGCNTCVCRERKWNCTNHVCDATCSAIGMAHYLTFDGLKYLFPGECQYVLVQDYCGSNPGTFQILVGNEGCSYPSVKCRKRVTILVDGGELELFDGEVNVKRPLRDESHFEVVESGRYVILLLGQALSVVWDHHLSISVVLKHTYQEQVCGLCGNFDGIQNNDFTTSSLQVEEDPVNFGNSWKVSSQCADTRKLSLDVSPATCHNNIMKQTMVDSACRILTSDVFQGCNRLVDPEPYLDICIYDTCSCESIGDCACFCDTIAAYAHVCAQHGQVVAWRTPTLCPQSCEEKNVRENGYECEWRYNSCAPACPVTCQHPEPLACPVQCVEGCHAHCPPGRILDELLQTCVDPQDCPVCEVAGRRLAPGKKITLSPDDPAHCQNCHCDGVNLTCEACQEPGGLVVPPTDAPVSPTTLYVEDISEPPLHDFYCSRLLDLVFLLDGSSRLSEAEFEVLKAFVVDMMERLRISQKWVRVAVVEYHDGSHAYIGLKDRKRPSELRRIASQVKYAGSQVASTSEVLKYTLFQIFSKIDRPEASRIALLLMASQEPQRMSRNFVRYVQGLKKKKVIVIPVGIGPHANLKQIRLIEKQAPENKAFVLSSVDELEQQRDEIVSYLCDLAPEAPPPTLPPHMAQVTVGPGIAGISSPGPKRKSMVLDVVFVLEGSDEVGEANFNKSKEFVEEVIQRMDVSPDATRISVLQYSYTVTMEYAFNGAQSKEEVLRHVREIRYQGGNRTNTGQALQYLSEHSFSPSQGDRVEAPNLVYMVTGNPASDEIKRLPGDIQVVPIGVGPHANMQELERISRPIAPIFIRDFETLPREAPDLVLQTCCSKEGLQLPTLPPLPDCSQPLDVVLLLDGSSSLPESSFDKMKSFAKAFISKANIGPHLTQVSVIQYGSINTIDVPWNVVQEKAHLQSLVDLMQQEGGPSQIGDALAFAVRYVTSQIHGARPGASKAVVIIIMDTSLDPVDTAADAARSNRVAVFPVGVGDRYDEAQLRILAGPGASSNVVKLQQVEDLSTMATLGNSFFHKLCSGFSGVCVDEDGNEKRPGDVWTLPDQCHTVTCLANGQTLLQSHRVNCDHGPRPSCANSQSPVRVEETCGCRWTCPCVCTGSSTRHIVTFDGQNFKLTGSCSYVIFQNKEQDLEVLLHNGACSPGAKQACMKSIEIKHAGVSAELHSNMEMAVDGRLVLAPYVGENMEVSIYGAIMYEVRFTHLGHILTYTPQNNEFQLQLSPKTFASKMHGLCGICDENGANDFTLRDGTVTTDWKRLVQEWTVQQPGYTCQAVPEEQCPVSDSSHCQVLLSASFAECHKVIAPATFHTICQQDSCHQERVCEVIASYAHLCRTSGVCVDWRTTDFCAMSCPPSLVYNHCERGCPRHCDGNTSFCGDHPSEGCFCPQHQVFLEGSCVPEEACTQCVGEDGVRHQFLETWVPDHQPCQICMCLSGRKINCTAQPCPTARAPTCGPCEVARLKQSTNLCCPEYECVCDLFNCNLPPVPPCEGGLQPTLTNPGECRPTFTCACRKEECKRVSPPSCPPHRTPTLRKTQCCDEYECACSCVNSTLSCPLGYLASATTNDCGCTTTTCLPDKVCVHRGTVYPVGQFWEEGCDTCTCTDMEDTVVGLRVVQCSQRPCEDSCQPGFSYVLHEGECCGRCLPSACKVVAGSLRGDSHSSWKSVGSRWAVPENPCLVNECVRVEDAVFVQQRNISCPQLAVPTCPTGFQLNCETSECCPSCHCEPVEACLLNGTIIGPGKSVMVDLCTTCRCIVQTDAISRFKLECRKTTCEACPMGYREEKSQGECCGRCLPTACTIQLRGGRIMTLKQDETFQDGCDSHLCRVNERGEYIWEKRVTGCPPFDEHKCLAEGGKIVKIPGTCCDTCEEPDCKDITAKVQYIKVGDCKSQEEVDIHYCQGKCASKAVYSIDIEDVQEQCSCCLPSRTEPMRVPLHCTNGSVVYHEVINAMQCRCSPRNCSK
T3 sequence (Q8CIZ8 other isoform, or with tags, fused parts or gaps limits assumed): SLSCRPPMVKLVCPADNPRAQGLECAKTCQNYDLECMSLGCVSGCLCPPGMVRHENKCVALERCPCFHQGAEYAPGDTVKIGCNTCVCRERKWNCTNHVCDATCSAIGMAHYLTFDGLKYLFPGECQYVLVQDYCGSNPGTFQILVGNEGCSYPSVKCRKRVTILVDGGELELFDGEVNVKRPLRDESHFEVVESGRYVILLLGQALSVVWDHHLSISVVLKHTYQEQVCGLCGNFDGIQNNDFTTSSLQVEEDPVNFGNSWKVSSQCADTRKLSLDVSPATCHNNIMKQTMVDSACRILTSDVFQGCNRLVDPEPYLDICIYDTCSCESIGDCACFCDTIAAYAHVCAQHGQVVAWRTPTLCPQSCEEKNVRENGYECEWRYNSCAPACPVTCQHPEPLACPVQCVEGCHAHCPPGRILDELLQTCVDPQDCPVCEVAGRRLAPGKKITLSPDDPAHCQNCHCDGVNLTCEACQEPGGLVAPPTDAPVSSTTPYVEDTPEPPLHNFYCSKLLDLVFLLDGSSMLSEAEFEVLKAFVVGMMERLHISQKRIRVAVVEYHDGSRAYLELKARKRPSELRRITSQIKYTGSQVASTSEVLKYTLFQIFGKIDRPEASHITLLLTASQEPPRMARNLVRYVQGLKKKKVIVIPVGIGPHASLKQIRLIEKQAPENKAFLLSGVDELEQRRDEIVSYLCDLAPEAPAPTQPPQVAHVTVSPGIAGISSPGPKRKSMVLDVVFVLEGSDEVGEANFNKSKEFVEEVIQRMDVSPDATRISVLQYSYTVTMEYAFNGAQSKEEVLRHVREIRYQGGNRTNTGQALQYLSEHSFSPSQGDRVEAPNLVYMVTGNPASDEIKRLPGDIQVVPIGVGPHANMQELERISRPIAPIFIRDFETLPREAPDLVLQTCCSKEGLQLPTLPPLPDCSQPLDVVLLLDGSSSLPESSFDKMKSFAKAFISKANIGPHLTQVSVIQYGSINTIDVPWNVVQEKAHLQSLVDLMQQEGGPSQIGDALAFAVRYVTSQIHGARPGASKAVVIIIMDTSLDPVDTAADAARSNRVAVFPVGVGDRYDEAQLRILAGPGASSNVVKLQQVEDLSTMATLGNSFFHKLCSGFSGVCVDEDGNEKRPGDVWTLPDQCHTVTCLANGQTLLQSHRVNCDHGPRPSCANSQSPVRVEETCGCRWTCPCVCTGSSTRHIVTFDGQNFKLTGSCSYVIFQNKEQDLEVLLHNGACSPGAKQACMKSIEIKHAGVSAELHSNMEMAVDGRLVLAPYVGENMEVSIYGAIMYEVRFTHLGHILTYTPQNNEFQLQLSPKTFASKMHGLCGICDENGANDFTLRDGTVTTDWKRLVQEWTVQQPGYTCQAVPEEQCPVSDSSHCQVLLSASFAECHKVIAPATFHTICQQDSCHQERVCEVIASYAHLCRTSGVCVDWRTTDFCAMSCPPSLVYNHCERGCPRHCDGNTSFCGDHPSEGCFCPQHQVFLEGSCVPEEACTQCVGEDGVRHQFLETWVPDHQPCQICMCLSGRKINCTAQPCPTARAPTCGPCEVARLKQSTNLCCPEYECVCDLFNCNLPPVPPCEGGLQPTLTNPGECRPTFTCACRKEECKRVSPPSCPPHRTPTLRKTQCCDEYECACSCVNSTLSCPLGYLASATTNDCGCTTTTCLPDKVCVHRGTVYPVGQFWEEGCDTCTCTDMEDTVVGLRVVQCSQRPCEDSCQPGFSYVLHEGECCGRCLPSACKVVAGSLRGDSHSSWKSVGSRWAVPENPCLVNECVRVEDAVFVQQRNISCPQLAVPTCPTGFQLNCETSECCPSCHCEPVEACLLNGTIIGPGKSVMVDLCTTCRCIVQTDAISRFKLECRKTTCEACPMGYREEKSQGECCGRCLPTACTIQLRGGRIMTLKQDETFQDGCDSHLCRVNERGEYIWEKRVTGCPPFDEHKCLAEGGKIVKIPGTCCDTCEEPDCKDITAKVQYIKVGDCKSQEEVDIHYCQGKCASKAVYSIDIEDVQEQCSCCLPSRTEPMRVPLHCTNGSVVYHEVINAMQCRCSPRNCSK

Binder: B1
- binding result [1]: binds
- binding result [2]: no binding
- binding result [3]: binds

Binder: B2
- fold reduction in koff versus the single 1326H>R mutant [4]: 2 fold
- koff [5]: 8.5 s⁻¹

Binder: B3
- binding result [6]: no binding

Binder: B4
- binding result [7]: binds

Binder: B5
- koff [8]: 5.1 s⁻¹
- koff [9]: 8.4 s⁻¹
- koff [10]: 9.9 s⁻¹
- binding result [11]: binds

Binder: B6
- koff [12]: 0.9 s⁻¹
- koff [13]: 1.6 s⁻¹
- koff [8]: 0.7 s⁻¹

Binder: B7
- fold reduction in platelet adhesion versus WT mouse protein [14]: ~5 fold
- fold increase in translocation velocity versus WT mouse protein [15]: ~7 fold
- binding result [16]: binds
